Assay results: the supplement of paper PMC10567573

B1: ZNF449 (parent)
chain: HKKKSPGEKPHRCPQCGKCFARKS
B2: ZNF263 (parent)
chain: QPKKLHLCPLCGKNFSNNSNLIRH

Variants of: B1
Test: protein stability index of a GFP-peptide fusion (GPS, HEK-293T) (PSI 1-6); higher = more stable
Settings: c terminus: a fixed tail appended
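Further: lentivirally expressed fusions sorted by FACS into six bins by GFP to DsRed ratio, PSI derived from sequencing read proportions per bin multiplied by bin number.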

Protein stability index: each site, then its substitutions
C16: Q 4.18; N 3.64; A 4.73; E 4.71; Y 4.59; R 3.42; T 3.71; P 4.48; G 4.53; I 4.24; H 2.71
Q15: E 3.38; F 3.19; W 3.45; M 3.95; I 3.45; H 3.24; K 3.25; Y 3.6
R22: G 3.46; H 3.83; K 3.83; N 3.45; L 3.64; M 3.33; D 3.82; Q 3.78; V 3.15; S 2.92; T 4.06
A21: I 2.92; D 3.51; Y 3.27; V 4.04; T 3.69; K 3.99; L 3.26; C 2.66
S24: D 3.97; K 3.99; W 2; V 1.78; I 3.32; F 1.99; P 3.76; T 3.8; C 3.82
G17: H 3.44; W 3.41; F 3.79; N 3.75; D 3.86; Y 3.6; C 3.31; Q 3.66
F20: Y 3.67; A 3.64; P 1.49; L 4.18; H 4.62; V 3.97; S 3.63; D 4.04; I 4.38; R 3.96; E 4.11; N 5.19
K18: W 2.5; H 4.25; S 2.94; I 2.52; V 2.9; D 2.17; L 3.13; P 2.97; C 3.29; F 5.18; N 3.87
P14: R 3; V 3.75; N 3.87; K 3.78; W 2.57; S 3.01; T 3.54; Y 3.75
C19: A 3.36; I 4.05; N 3.79; H 4.35; D 3.66; V 3.41; Y 3.99; T 3.44; F 3.48; M 2.54
K23: D 3.57; E 2.5; L 2.04; Y 3.12; S 2.03; P 2.43; N 2.72; I 2.09; W 2.68; F 1.75; R 3.3; G 3.12

Variants of: B2
Test: as above
Settings: c terminus: a fixed tail appended

Protein stability index, by site and new letter:
I22: T 2.35; K 2.33; L 2.93; H 2.76; W 1.79; Q 3.09; R 2.76; A 2.8; G 1.98; P 2.19
S19: F 2.54; E 3.14; K 3.37; M 2.7; N 2.89; W 2.67; Y 2.6; Q 2.69; R 2.5; D 3.24; H 2.55
L7: I 3.56; V 3.04; E 2.28; W 2.38; P 2.07; H 2.46
G12: V 2.36; K 2.13; I 2.44; R 2.34; Q 2.53; W 1.94; D 2.11; Y 2.68; N 2.45
L10: D 3.78; M 3.28; E 3.47; I 2.83; W 2.38; R 3.32; G 2.87; C 4.03; F 3.03; K 3.44; N 3.16
K3: I 2.78; D 2.94; Q 2.52; R 2.06; F 2.83; P 2.62; L 2.63; Y 2.05; H 2.82
N14: R 2.35; D 2.08; E 3.52; G 2.63; C 3.93; P 2.61; Q 3.1; V 3.04; Y 2.57; F 2.69; A 3.29; T 2.97; L 2.84
P9: D 2.56; A 2.43; F 1.93; E 2.56; Y 2.61; W 2.4; S 2.52; L 2.21
N17: T 2.91; W 2.15; L 2.58; M 2.26; Y 2.23; A 2.69; P 2.33; G 2.09; I 2.25
C11: G 2.56; Y 1.68; I 2.16; S 2.74; D 3.58; H 2.88; E 3.18; K 2.62; Q 2.91; T 3.11
Q1: N 2.83; I 2.61; G 2.33; Y 2.23; W 2.26; D 3.09; M 2.6; R 2.47; H 2.69
H24: N 2.22; W 2.38; C 1.84; S 2.4; R 2.07; D 2.11; Y 2.61; E 2.43; F 2.44; K 2.64; Q 2.43
R23: M 2.52; Q 2.77; V 2.33; N 2.96; C 3; E 3.06; Y 1.91; A 3.08; S 2.78
H6: W 2.05; E 2.38; F 2.44; I 2.05; S 1.71; R 2.32; M 2.24; P 2.11; Y 2.88; T 3.08; Q 2.22; A 2.02
N18: P 3.28; E 3.66; R 3.36; F 2.76; G 1.8; M 2.5; H 2.82
P2: Q 2.47; E 2.59; L 1.81; N 2.31; T 2.57
K4: H 2.49; I 2.85; E 3.36; M 2.53; G 2.63; Y 2.44; L 2.97
F15: I 2.36; V 1.82; C 2.53; R 2.61; H 3.33; E 2.07; P 2.22; T 1.95; G 1.8
C8: W 1.97; T 3.03; Y 1.82; F 2.05; G 2.85; R 2.56; Q 2.71; E 3.1; N 3; L 1.97; K 2.46; H 2.38; V 3.15; A 2.83
S16: N 2.38; C 2.57; Y 2.6; E 2.62; I 2.36; A 2.4; Q 2.44; V 2.05; H 2.42; T 2.21; G 3.42
N20: Y 2.56; K 3; R 2.01; I 1.94; Q 4.04; G 2.46; F 1.57
L5: S 2.39; H 2.64; G 2.54; A 2.53; M 2.71; I 2.64; T 1.71
K13: N 2.77; V 2; Q 2.11; L 2.21; C 2.47; Y 2.91; G 2.24; M 2.69; W 1.8
L21: N 2.44; T 2.56; A 2.56; Y 2.12; D 2.72; F 2.32; W 2.44; P 1.93; K 2.87; R 2.64; I 2.47; M 2.48; Q 2.38
